Data on seven molecules can be found in patent US20200199241A1 (Chugai, published 2020).

Positions count from the first letter of the chain named. Names may count otherwise.

For test [1], the target named is T1, human FcγRIIa(H) (human, UniProt P12318 36-217).
T1 construct: also called FcgRIIaH; hFcgRIIa(H)
T1 sequence: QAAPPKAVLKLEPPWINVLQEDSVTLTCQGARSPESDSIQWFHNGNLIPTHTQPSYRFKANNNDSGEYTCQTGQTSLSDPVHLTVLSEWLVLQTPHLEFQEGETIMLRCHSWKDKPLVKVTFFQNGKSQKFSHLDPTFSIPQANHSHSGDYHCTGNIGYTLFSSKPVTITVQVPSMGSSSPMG
Nature of the test: SPR, pH 7.4, antibody captured by Protein L. For orientation: Surface plasmon resonance follows binding to a sensor surface in real time, without labels.
Experimental: (§1) Binding activity between the antibodies and human FcγRIa, FcγRIIa(H), FcγRIIa(R), FcγRIIb and FcγRIIIa(F) (hereinafter referred to as human FcγRs) was evaluated using the BIACORE™ T100 or T200 surface plasmon resonance system (GE Healthcare). The antibodies being tested were captured by Protein L (ACTIGEN® protein (Alltech)) that was immobilized in suitable amounts on the CM4 Sensor Chip (GE Healthcare) by amine coupling. Next, the diluted human FcγRs and a running buffer used as a blank were injected to allow interaction with the antibodies captured on the sensor chip. A buffer consisting of 20 mmol/L N-(2-acetamido)-2-aminoethanesulfonic acid (ACES), 150 mmol/L NaCl and 0.05% (w/v) polysorbate 20 (Tween 20®) (pH 7.4) was used for the running buffer, and this buffer was also used to dilute the human FcγRs. 10 mmol/L glycine-HCl (pH 1.5) was used to regenerate the sensor chip. All measurements were carried out at 25° C.

Test [2] concerns the target T2, human FcγRIa (human, UniProt P12314 16-292, limits assumed).
T2 construct: also called FcgRIa; hFcgRIa
Nature of the test: SPR, pH 7.4, antibody captured by Protein L.
Experimental: as §1

For test [3], the target named is T3, human FcγRIIb (human, UniProt P31994 43-217, limits assumed).
T3 construct: also called FcgRIIb; hFcgRIIb
T3 sequence: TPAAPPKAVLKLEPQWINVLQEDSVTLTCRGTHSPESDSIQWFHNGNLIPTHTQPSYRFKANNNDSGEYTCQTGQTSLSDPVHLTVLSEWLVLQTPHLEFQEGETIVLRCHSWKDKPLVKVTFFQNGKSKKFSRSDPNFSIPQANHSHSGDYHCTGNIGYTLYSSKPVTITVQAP
Nature of the test: SPR, pH 7.4, antibody captured by Protein L.
Experimental: as §1

The target in test [4] is T4, human FcγRIIa(R) (human, UniProt P12318 36-217).
T4 construct: also called FcgRIIaR; hFcgRIIa(R)
T4 chain: T1 sequence with H133R
As to the kind of experiment: SPR, pH 7.4, antibody captured by Protein L.
Experimental: as §1

For test [5], the target named is T5, human FcγRIIIa(V) (human, UniProt P08637 17-208, limits assumed).
T5 construct: also called hFcgRIIIa(V); FcγRIIIa allotype V158
As to the kind of experiment: SPR, pH 7.4, antibody captured by Protein L.
Experimental: as §1

For test [6], the target named is T6, FcγRIIb (human, UniProt P31994 43-217, limits assumed).
T6 construct: also called FcgRIIb; FcγIIB
T6 sequence: T3 sequence
As to the kind of experiment: SPR (Biacore); KD for FcγRIIaR divided by KD for FcγRIIb of the same antibody.

Test [7] addresses T7, FcγRIIa type H (human, UniProt P12318 36-217).
T7 construct: also called FcγRIIaH; FcγRIIH
T7 sequence: T1 sequence
As to the kind of experiment: SPR (Biacore), FcγR over captured antibody.

For test [8], the target named is T8, FcγRIIIa type V (human, UniProt P08637 17-208, limits assumed).
T8 construct: also called FcγRIIIaV; FcgRIIIaV
As to the kind of experiment: SPR (Biacore), FcγR over captured antibody.

The target of test [9] is T9, FcγRIa (human, UniProt P12314 16-292, limits assumed).
T9 construct: also called FcgRIa; CD64
As to the kind of experiment: SPR (Biacore), FcγR over captured antibody.

The target of test [10] is T6, FcγRIIb. As to the kind of experiment: SPR (Biacore), FcγR over captured antibody.
The target of test [11] is T10, FcγRIIa type R (human, UniProt P12318 36-217).
T10 construct: also called FcγRIIaR; FcgRIIaR
T10 chain: T1 sequence with H133R
Nature of the test: SPR (Biacore), FcγR over captured antibody.

For test [12], the target named is T6, FcγRIIb. As to the kind of experiment: SPR (Biacore); KD for FcγRIIaH divided by KD for FcγRIIb of the same antibody.
Text: Furthermore, KD(IIaR)/KD(IIb) and KD(IIaH)/KD(IIb) in the table respectively represent the value obtained by dividing the KD value of each variant for FcγRIIaR by the KD value of each variant for FcγRIIb, and the value obtained by dividing the KD value of each variant for FcγRIIaH by the KD value of each variant for FcγRIIb.
In test [13] the target is T6, FcγRIIb. As to the kind of experiment: SPR (Biacore), KD of IL6R-B3/IL6R-L divided by KD of the variant.
Text: Furthermore, KD(IIaR)/KD(IIb) and KD(IIaH)/KD(IIb) in the table respectively represent the value obtained by dividing the KD value of each variant for FcγRIIaR by the KD value of each variant for FcγRIIb, and the value obtained by dividing the KD value of each variant for FcγRIIaH by the KD value of each variant for FcγRIIb. KD(IIb) of the parent polypeptide/KD(IIb) of the altered polypeptide refers to the value obtained by dividing the KD value of the parent polypeptide for FcγRIIb by the KD value of each variant for FcγRIIb.
For test [14], the target named is T7, FcγRIIa type H. Nature of the test: SPR (Biacore), bound amount, IL6R-BF648/IL6R-L = 100.
Experimental: (§2) According to the following method, relative binding activities were calculated for the results of analyzing interactions with the respective FcγRs.
In test [15] the target is T8, FcγRIIIa type V. The description is as above.
Experimental: as §2
Test [16] concerns the target T9, FcγRIa. The test is described as above.
Experimental: as §2
In test [17] the target is T6, FcγRIIb. The test is described as above.
Experimental: as §2

T8 sequence (P08637 other isoform, or with tags, fused parts or gaps limits assumed): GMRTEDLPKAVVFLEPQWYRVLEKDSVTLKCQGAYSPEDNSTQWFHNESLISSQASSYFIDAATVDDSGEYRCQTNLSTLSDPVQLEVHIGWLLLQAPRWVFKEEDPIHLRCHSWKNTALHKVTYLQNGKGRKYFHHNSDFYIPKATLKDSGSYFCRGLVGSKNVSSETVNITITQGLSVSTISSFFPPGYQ
T9 sequence (P12314 16-292 limits assumed): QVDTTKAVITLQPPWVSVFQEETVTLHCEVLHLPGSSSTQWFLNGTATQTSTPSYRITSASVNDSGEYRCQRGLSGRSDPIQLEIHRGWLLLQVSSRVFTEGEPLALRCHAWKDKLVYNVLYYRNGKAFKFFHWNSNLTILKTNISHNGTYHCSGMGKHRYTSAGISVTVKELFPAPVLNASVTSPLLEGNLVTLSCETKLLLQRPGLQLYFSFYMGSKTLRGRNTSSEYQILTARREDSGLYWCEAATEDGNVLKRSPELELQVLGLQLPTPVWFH
T5 sequence (P08637 other isoform, or with tags, fused parts or gaps limits assumed): as the sequence (P08637 other isoform, or with tags, fused parts or gaps limits assumed) above
T2 sequence (P12314 16-292 limits assumed): as the sequence (P12314 16-292 limits assumed) above

B1: VH3-IgG2-F890/L(WT)-CK (antibody)
heavy: QVQLQESGPGLVKPSETLSLTCAVSGHSISHDHAWSWVRQPPGEGLEWIGFISYSGITNYNPSLQGRVTISRDNSKNTLYLQMNSLRAEDTAVYYCARSLARTTAMDYWGEGTLVTVSSASTKGPSVFPLAPCSRSTSESTAALGCLVKDYFPEPVTVSWNSGALTSGVHTFPAVLQSSGLYSLSSVVTVPSSNFGTQTYTCNVDHKPSNTKVDKTVERKCCVECPPCPAPPVAGPSVFLFPPKPKDTLYISRTPEVTCVVVDVSHEDPEVQFNWYVDGVEVHNAKTKPREEQFNSTFRVVSVLTVVHQDWLNGKEYKCKVSNKGLPAPIEKTISKTKGQPREPQVYTLPPSREEMTKNQVSLTCLVKGFYPSDIAVEWESNGQPENNYKTTPPMLDSDGSFFLYSKLTVDKSRWQQGNVFSCSVMHEALHYHVTQKSLSLSP
light: not shown
notes: M252Y/N434Y/Y436V in VH3-IgG2; copies: 2 + 2
B1: the binding amount in [1] came to 204 RU; in test [2] it was 19.7 RU; in test [3], 31.9 RU; in test [4], 120 RU; in test [5], 28.1 RU.

B2: VH3-IgG2/L(WT)-CK (antibody)
heavy: B1 heavy with Y250M, Y432N, V434Y
light: not shown
notes: copies: 2 + 2
Turning to B2, the binding amount in test [1] came to 266 RU; in test [2] it was 38.6 RU; in test [3], 55.5 RU; in test [4], 188 RU; in [5], 50.1 RU.

B3: IL6R-B3/IL6R-L (antibody, human IgG1)
heavy: not shown
light: DIQMTQSPSSLSASVGDRVTITCRASQDISSYLNWYQQKPGKAPKLLIYYTSRLHSGVPSRFSGSGSGTDFTFTISSLQPEDIATYYCQQGNTLPYTFGQGTKVEIK
notes: IgG1; IL6R-G1d with K439E (EU); also called parent polypeptide; copies: 2 + 2
The term Kd denotes the constant that tells how readily two partners part at equilibrium. As to B3, the “KD(IIaR)/KD(IIb)” value in [6] came to 0.3. Further, the Kd in [7] is 770 nM; in [8], 330 nM; in [9], 0.42 nM; in test [10], 3100 nM; in test [11] it was 1100 nM. Also, the “KD(IIaH)/KD(IIb)” value in test [12] stood at 0.2. For the same molecule, in test [13], the “KD(IIb) of the parent polypeptide/KD(IIb) of altered polypeptide” value (“KD(IIb) … of altered polypeptide” below) came to 1 fold. Besides, the relative binding activity in test [14] was 1600 % of control; in test [15], 3260 % of control; in test [16] it was 145 % of control; in [17], 58 % of control.

B4: IL6R-G1d/IL6R-L (antibody, human IgG1)
heavy: not shown
light: B3 light
notes: IgG1 (G1d constant region) antibody to human IL-6 receptor; also called IgG1 (IL6R-G1d); copies: 2 + 2
With B4, in [6], the “KD(IIaR)/KD(IIb)” value is 0.4. The Kd in test [7] was found to be 670 nM; in test [8] it was 350 nM; in test [9], 0.32 nM; in test [10] it was 2600 nM; in [11] it was 1000 nM. Also, the “KD(IIaH)/KD(IIb)” value in [12] amounted to 0.3. The “KD(IIb) … of altered polypeptide” value in [13] was 1.2 fold. For the same molecule, the relative binding activity was 1670 % of control in [14], 3350 % of control in test [15], 140 % of control in test [16] and 62 % of control in [17].

B5: IL6R-BP118/IL6R-L (antibody, human IgG1)
heavy: QVQLQESGPGLVKPSETLSLTCAVSGHSISHDHAWSWVRQPPGEGLEWIGFISYSGITNYNPSLQGRVTISRDNSKNTLYLQMNSLRAEDTAVYYCARSLARTTAMDYWGEGTLVTVSSASTKGPSVFPLAPSSKSTSGGTAALGCLVKDYFPEPVTVSWNSGALTSGVHTFPAVLQSSGLYSLSSVVTVPSSSLGTQTYICNVNHKPSNTKVDKKVEPKSCDKTHTCPPCPAPELLGGDSVFLFPPKPKDTLMISRTPEVTCVVVDVSHEDPEVKFNWYVDGVEVHNAKTKPREEQYNSTYRVVSVLTVLHQDWLNGKEYKCKVSNSALPAPIEKTISKAKGQPREPQVYTLPPSRDELTKNQVSLTCLVKGFYPSDIAVEWESNGQPENNYKTTPPVLDSDGSFFLYSKLTVDKSRWQQGNVFSCSVMHEALHNHYTQESLSLSP
light: B3 light
notes: IgG1; Fc variant of IL6R-B3; copies: 2 + 2
Consider B5, for which the “KD(IIaR)/KD(IIb)” value in test [6] stood at 13.2. Further, the Kd in test [7] came out at 46000 nM; in [8], 56000 nM; in [9] it was 12 nM; in test [10], 1200 nM; in test [11], 15000 nM. Further, the “KD(IIaH)/KD(IIb)” value in test [12] was 40. The “KD(IIb) … of altered polypeptide” value in [13] amounted to 2.7 fold.

B6: IL6R-BP119/IL6R-L (antibody, human IgG1)
heavy: B5 heavy with S328M
light: B3 light
notes: as for B5
Turning to B6, the “KD(IIaR)/KD(IIb)” value in [6] stood at 8.7. Also, the Kd in test [7] turned out to be 45000 nM; in test [8], 56000 nM; in test [9], 7 nM; in [10], 1100 nM; in test [11], 9900 nM. The “KD(IIaH)/KD(IIb)” value in test [12] was 39.5. For the same molecule, the “KD(IIb) … of altered polypeptide” value in test [13] was determined as 2.7 fold.

B7: IL6R-BF648/IL6R-L (antibody, human IgG1)
heavy: not shown
light: B3 light
notes: IgG1; Fc variant of IL6R-B3; control (= 100) of the relative values; copies: 2 + 2
As to B7, in [6], the “KD(IIaR)/KD(IIb)” value stood at 13. Moreover, the Kd in test [7] is 40000 nM; in test [8], 71000 nM; in test [9], 11 nM; in test [10], 1200 nM; in test [11], 15000 nM. In addition, the “KD(IIaH)/KD(IIb)” value in [12] is 33.9. The “KD(IIb) … of altered polypeptide” value in test [13] came to 2.6 fold. Besides, the relative binding activity in test [14], in [15], in test [16] and in test [17] was 100 % of control throughout.
